The test addresses p65 (UniProt Q04206). Nature of the test: anti-FLAG co-IP, anti-p65 blot. As to conditions: reference: Flag-WT, IL-1β treated; sites S15.

The record followed here is publication PMC7279388.

For “PRMT5 (from UniProt O14744) Flag-S15A, IL-1β treated”, the “binding against the reference” value is “weaker”.
